Laboratory results as given in patent US20240209367.

Target: C3b

B1: Complement Factor I (FI) (protein)
chain: KVTYTSQEDLVEKKCLAKKYTHLSCDKVFCQPWQRCIEGTCVCKLPYQCPKNGTAVCATNRRSFPTYCQQKSLECLHPGTKFLNNGTCTAEGKFSVSLKHGNTDSEGIVEVKLVDQDKTMFICKSSWSMREANVACLDLGFQQGADTQRRFKLSDLSINSTECLHVHCRGLETSLAECTFTKRRTMGYQDFADVVCYTQKADSPMDDFFQCVNGKYISQMKACDGINDCGDQSDELCCKACQGKGFHCKSGVCIPSQYQCNGEVDCITGEDEVGCAGFASVTQEETEILTADMDAERRRIKSLLPKLSCGVKNRMHIRRKRIVGGKRAQLGDLPWQVAIKDASGITCGGIYIGGCWILTAAHCLRASKTHRYQIWTTVVDWIHPDLKRIVIEYVDRIIFHENYNAGTYQNDIALIEMKKDGNKKDCELPRSIPACVPWSPYLFQPNDTCIVSGWGREKDNERVFSLQWGEVKLISNCSKFYGNRFYEKEMECAGTYDGSIDACKGDSGGPLVCMDANNVTYVWGVVSWGENCGKPEFPGVYTKVANYFDWISYHVGRPFISQYNV
in vitro C3b breakdown assay (C3b incubated with FI and a fragment of cofactor CR1; time course by gel electrophoresis and GluC/SRM-MS): the formation of C3b fragments iC3b, C3f and C3c, and loss of intact C3b can be clearly detected over time
